Patent US20110033951, “ASSAY METHOD AND KIT FOR NUCLEIC ACID BINDING PROTEIN” (Hiroshima University, published 2011)

Key:
SP1 [1] = target: T1, SP1 (Homo sapiens, UniProt P08047 P08047:2-785); assay: competition; decoy lowered only SP1/DNA signal; conditions: tags: Promega
Description: (§1) A mixed solution of 31F/42 and 05C/08 (40 fmol each), 800 fmol of the decoy (NF01/02 or SP01/02), a solution of a protein mixture (2.5 pmol of recombinant human SP1 and 0.125 pmol of recombinant human NFκB p50) were mixed into a reaction solution (10 mM HEPES-NaOH pH 7.9, 50 mM KCl, 0.1 mM EDTA, 5 mM DTT, 10% glycerol, 0.05% IGEPAL CA-630, 15 μL) and reacted at 25° C. for 30 minutes. A mixed solution of 32D/41 and 06B/07 (80 fmol each) was added thereto, and 50 μL of the resulting mixture was then reacted at 25° C. for 120 minutes. The fluorescence values of fluorescein and Cy3 were measured using a fluorescence plate reader Ultra (Tecan Group Ltd.). The fluorescein was excited at 485 nm, and its fluorescence was measured at 535 nm. The Cy3 was excited at 535 nm and its fluorescence was measured at 595 nm.

NF-kappaB p50 [2] = target: T2, NF-kappaB p50 (Homo sapiens, UniProt P19838 P19838:1-433); assay: competition; SP1 decoy did not affect NF-kB/DNA signal; conditions: tags: Promega; chain copies: 2
T2 sequence (P19838 1-433, one chain of several): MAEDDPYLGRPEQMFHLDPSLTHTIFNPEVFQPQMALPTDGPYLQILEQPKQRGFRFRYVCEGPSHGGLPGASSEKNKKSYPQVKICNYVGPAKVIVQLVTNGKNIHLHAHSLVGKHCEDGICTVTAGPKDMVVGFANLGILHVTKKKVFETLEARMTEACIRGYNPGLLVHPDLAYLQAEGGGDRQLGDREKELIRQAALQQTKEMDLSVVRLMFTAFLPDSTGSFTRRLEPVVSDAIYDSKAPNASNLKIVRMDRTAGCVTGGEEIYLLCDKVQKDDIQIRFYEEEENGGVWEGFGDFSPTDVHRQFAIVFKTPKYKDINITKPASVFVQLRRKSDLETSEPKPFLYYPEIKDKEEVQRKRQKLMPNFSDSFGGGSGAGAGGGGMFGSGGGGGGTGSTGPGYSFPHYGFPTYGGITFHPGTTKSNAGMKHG
Description: as §1

NF-kappaB p50 [3] = target: T2, NF-kappaB p50; assay: competition; decoy restored strand exchange; conditions: tags: Promega; chain copies: 2
Description: (§2) The fluorescence value was measured using a real-time PCR apparatus Rotor-Gene 2000 (Corbett Life Science).

SP1 [4] = target: T1, SP1; assay: competition; NF-kB decoy did not affect SP1/DNA signal; conditions: tags: Promega
Description: as §1

NF-kappaB p50 [5] = target: T2, NF-kappaB p50; assay: competition; decoy without NF-kB site did not compete; conditions: tags: Promega; chain copies: 2
Description: as §2

T1 sequence (P08047 2-785, one chain of several): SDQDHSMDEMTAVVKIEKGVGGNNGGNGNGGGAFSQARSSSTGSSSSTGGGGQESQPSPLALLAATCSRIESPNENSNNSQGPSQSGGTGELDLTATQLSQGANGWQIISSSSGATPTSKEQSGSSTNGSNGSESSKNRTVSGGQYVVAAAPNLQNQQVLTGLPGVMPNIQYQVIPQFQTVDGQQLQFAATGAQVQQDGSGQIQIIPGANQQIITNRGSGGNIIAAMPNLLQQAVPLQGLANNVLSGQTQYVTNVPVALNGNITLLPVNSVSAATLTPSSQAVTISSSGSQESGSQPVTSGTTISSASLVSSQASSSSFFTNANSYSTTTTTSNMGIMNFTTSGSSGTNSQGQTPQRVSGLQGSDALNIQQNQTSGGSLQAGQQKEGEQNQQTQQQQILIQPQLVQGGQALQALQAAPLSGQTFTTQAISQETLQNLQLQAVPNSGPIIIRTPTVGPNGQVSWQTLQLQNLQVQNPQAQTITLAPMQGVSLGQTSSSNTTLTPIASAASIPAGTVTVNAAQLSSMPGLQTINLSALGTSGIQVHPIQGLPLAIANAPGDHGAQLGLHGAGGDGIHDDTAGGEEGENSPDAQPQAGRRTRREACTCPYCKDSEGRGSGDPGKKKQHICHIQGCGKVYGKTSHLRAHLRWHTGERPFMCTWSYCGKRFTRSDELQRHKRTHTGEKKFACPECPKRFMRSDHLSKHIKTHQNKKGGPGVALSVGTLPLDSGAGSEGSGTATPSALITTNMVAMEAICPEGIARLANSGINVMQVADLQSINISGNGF

B1: SP01/02 decoy (dsDNA)
DNA 1: TCGAGCGGGGCGGGGCGACGAA
DNA 2: TTCGTCGCCCCGCCCCGCTCGA
binding result (SP1 [1]): binds | binding result (NF-kappaB p50 [2]): no binding

B2: NFcpt decoy (NF01/02) (dsDNA)
DNA 1: GCACTAGGGACTTTCCGCCACG
DNA 2: CGTGGCGGAAAGTCCCTAGTGC
binding result (NF-kappaB p50 [3]): binds | binding result (SP1 [4]): no binding

B3: APcpt decoy (dsDNA)
DNA 1: GGTGTCATGAGTCAGCTCGGAG
DNA 2: CTCCGAGCTGACTCATGACACC
binding result (NF-kappaB p50 [5]): no binding
